Reference: the domain aggregation screens of Martell et al. (2025)

Assay: soluble fraction after stress (log2 fold change); higher = more stays soluble; pooled small domains, quantitative proteomics
Details: stress: pH 4
Outline: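 Custom libraries of small protein domains were pooled and exposed to pH 4. High-throughput quantitative proteomics then measured the log2 fold change in the amount of each domain still soluble, with higher values meaning more stayed soluble. This soluble-fraction fold change stands for aggregation propensity.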

| Sequence | soluble fraction (log2) |
| --- | --- |
| HMESGNLIFTNAPIADVVNAIETRYGKKLQASNQTSDLQFTGIFKNTDEFSTVVKTIEIALGLQFEV | -1.37 |
| HMRVDRSALDSIPGVGPGRKRTLLHHFGSARAVEASGLADLESIRGISKALARKIYDFFHPE | 0.161 |
| HMIPNPMTDRELEVLGLLASGKTYKQVARALDLSQSTVRNHLHNVYHKLNVVDRAQAVIVSRENGW | -0.29 |
| HMSVGDLPPEAREIWKLLDGRELSLDLLAEETGRETGALLSTLMMLEMKLLVEHGSDMVYRRIPRR | -1.62 |
| HMTYTMVAYGSQGDAVRQLQSELNRHGYQLDEDGVFGKKTRAAVRDYQKKNSLRLDGIAGDETWGSLLA | -0.522 |
| HMYEVVPNMRGLTYNQATAALAAAGLKVELSDSIYDEHTQPGTVLDQSPRPNTKVKPNRVVYLTVNAF | -0.0904 |
| HMAIHTSVTEHGEHDLTVRMEMEQVFAIEMAVVSHEQATMLERTFKANAEAIYQKLLGVMTQEYP | -0.841 |
| HMVDDELTARRRVNLRRIADELGGAAAVARKTQKSVQQISSMLNGTKSFGSKIARDIEPKLGLPLQSLDKE | 0.203 |
| HMKALDTVLSEIPGLGPVRIKQLLKVFGSVDAIRKASLQDLQQIEGIGPKLAQTIYEYFHQP | -0.328 |
| HMNMSVVEKVIQQISNPGRDSLIPILQAVQEEEGFISRESVIEIGKALDLPASKIYGVATFYNQFR | -0.543 |
| HMEPKQIEVPNLVGISSAAARQTLSALGLHAVVKDSIWSETERIDTVLEQNPAGGALIKPEGTVYLRVSR | 0.0547 |
| HMRAEPNSNYSLAIIYKNRYDIAVKKKDAVKEVEYGKMVYEYLNKYVVLSGNKSAKYKKILNYFSSY | -0.445 |
| HMFWVESDVDFVDKTSAHNAIKENERVIGMYISYRLNGTWTTEQYVGIDTSKDNWENPDNWNIL | -0.381 |
| HMKESRFDYDAVLLYSDKDSITEVKDAVQHLTKEFGSVFTTKKIPEKATFGKLFRIEKGEVNIIEDN | -1.22 |
| HMPELTERELEVLLLTARGLPSSEAARLLFITRRTVAAHLTSIYGKLGARNKTEAVLAALKRGIIMLDQIG | -1.46 |
| HMSKNYYEILGVTPDVELSQLKAVYRRLVRKYHPDINPDGELIFKDITEAYEVLSDEKQRKQYDMINGF | -0.362 |
| HMPTTRPEAEAHYETHQRYHDLQIDVEGREAFKVATGSLTLVQEFDEKDDYDLSIPTPRSPAILLTT | -0.208 |
| HMLNKRQAEILAEVSRLKEITPSELYKLQPNVSSRTLRRDMDVLVNKGLVSQDGSTKSTKYTYL | 0.102 |
| HMGVLSPRQSQILALVAQGLGNREIAERLHIAPTTARDHVQAIMRRLNVNSRAAAAVMGVKLGLI | 0.085 |
| HMGGKYKGVIIGHLIDKTLRYNELQKLISHATPKMLIQQLKELEADGIIQRKLYPVVPPKTEYSLTERG | -0.0376 |
| HMALHLPTTTINGRQYYYFKSKEKITVYGLSKRLGLTRQEIVEHNPSAVDGIKRGSTLYFPVDEFAD | -0.074 |
| HMQKLKINKYKDPKGEIRYYIASTIRNGNKSSTHNLLSLGKHSDLLKEHSDVEAYLKERLNEAMESGI | 0.307 |
| HMKNQQLFNIGDRFQVDGVAYRMEKLFPENGTVEVYNLGVGRHKTMSFEEILALWNSGKLLFEI | -0.945 |
| HMNFTETENRIYEEILKNVKQHKKKTVVQIAEKVDVAPSYVIKVAKKLGYSGLNEMWYSLSGIY | -0.0318 |
| HMPESYFEMLQKLLETYALPQEGTIYFSAADLARMPQKFEDVIEQTAQKKGGHLVVSKEPKDMDGGFVLV | -1.62 |
| HMHNSQTIIDNIKRIANEQNISLSKLAVISGLGKNTITSMTAKTNIKIETLTAIAKSLNVSIHDLTGE | 0.0739 |

| Sequence | soluble fraction (log2) |
| --- | --- |
| HMDHSSLIKKLRLERGLSQKKLAQGISQRSTLASFENNATKISYNILIQYLDRMNVTLEEYQFMLDGNNL | -1.33 |
| HMGGGEYTVAKGDTLWKIAAQTLGSPTRYAEIYNLNKDVIEETARGRGKRDSSNGHWLFPGTALKIPGT | -0.234 |
| HMRKTLSQEAYEKIKQNLEDGVYQGYINGRQVARDLDIGFTPVREAFLQLQSEGLIRKEDNVGYFV | -0.183 |
| HMGAVGISQKVTSLETAVLGKNFAKDPLIDRVARLEQTVLPKQAEANASLSLPERVSKLLEKVPIAAG | 0.136 |
| HMLAQDVIVKQDGGTILSKVLEIGTQEIAYKKWNSQDGPVYKIAKDQVLSVNYQNGEVDRFA | -0.233 |
| HMPDLQKAIDDLLQVVDKRLNTSFESILNEVNSEKEAVAFFLALLEAVRWGFVKASQSDEGIKIEK | -0.387 |
| HMQNWFADPKFEMFEDYGDAQSFYDTETKNIYVVMAEYGQKGSNTIQEITPDSEEYIPNYEKYKEYMENK | -1.42 |
| HMQENFYMILESEERRVLDVLVADQPESVATFLKLVSPFPNYKIILEHINEKALDFYEETVI | -0.666 |
| HMQWQPSEEAMQRLEQHGIPRAFSFSQLDAFVLQGQEQGSNRNDWNTRFFRFIKNQWVYAQN | -1.17 |
| HMPQFDRQAFGQRLRLLRDYREMTQQQVANFLNVDRSTYSYYENGKTEPSITVLMRMAELFSVTLDSLLNM | -1.05 |
| HMSYKFDSLAIILNKLDGKETVNVSSLSDELEVSARTVHRYIGTLQVAGFPIEYDKTKNSYIFSEGYTL | -1.05 |
| HMIEGSSDWKPNMILDDGGDLTKIIHEEYQDLLDDIRGLSEETTTGVLRLYEMEKENSLAVPAINVND | -0.578 |
| HMEVPNLIGMTDKDLQRTYFQLPIEAAGDGSVVIKQLPEPGEKVKEGSVIRVLLG | 0.00722 |
| HMQISSSEVLEKVVDEILSANPKSIEDYKNGKLQAAGFLMGQVMKATKGQANPAVAKELIEAKLKD | 0.124 |
| HMKKRDANSQGTRLILFYMLQRLHTEYKLQGFVTYNQRRSFREIYDAYHALGGNGFGTAMWEEVKELDLK | -0.0682 |
| HMTIRIPEEEYLTRAKRAAQMTAERGLDALFLFGSEGDFQNVRYFTSVTPIWERLGVVITASGKAAMLTGP | -0.0548 |
| HMNVDALVGQRGRVTQTFDPGLRLGRVAVGGDDWRAETTTDQPLREGDLVEVVSVESNTLIVRPIA | 0.0146 |
| HMGTTMLEVPNFVGEVFKEIDPEKYPNLRLVDSDYTYSNEYEAGKVISQDPVARTQVAEGSTVKLVIS | -0.249 |
| HMSFDTFKKVFSNLVEKSGYSDAEIARRLGVNRSTISRWKSGEQSPPLPKVKEIANFFGVSPMVFVD | 0.0603 |
| HMSVTIDAGGKVYLQESEIADDQLVPRLVAISNNGYDKPIYLRADKTVGYGRVAEVMSLLNAAGFTKLVLV | -0.244 |
| HMEVVELTDDEKMILATLHDGPVEIGHIKQVVGLSGKKWDAATKSLRQKGLINVVLENEQKLMVK | -0.0453 |
| HMLELTVSDKMARLMAWRNRRRVNLSDQELHRIAAAPKQSPESILKMLPGFLQDSVPEIWAELTGGRP | -0.0678 |
| HMIKILGSAYRHGLDDDDILRAWNYHIQEFFEGEDPEKIVRLGFDTHGRLLEIGGEIYPGGGEKIFHAM | -0.719 |
| HMLLTHEEQIVKRGWQAPVGPFAILDSRAEAMHGDLEMLRGDREAAEQHFRRAWQIIGPIVEQ | 0.0572 |
| HMKYSYAELTKLQEQIAQDRNAPLTVPNALGIGLDERNNVIEITVNIADEAAAKAYYLQKYGDRISLKTTD | -0.243 |
| HMRGIPEEVADVAIQWVARLDSNEISDADRAAFFAWLDASPINRWAYNDISESWAKLSILNEMGH | -1.8 |

| Sequence | soluble fraction (log2) |
| --- | --- |
| HMKNLDILTPKEIEVLNLVAKGYSNSKISKELDIAEVTVKKHIGSMFQKLDVKDRLSLALIL | -0.52 |
| HMLTRYNVNYYYNGEILQRRKVAEGSAAERITYLSGSLEVTDWYTEADLLRKYDFTEPVTGDLNLYAFARI | -0.556 |
| HMVAADTVQVPDVTGKTVADAKQALISAGLQVGTVTAKDGKETANTILETSPAAGTSVDKGSKVNLVYSTG | -0.0646 |
| HMNMSVGAALRRRRNELGMTLRELADEAELTSGFLSQVENDRVSPSLKSLGRIAEVLRIPLFQLLS | -0.659 |
| HMEKTIQIYDNIIIKDFAEKMEVSPSQVITKLIGLGVMANLNQPIDINSAVIVGKEFGFNVESM | -0.952 |
| HMAPLADQIVDLLKEHDGFLPLHDNSSPEDIRATVGTSKKAFKQAIGGLFREKRIVIGPTGIRLIS | 0.146 |
| HMEMLQENIRNLRKAKGWSQEELAIKLNVVRQTVSKWEKGLSVPDSQMLIRIADELDTTVAILLG | 0.253 |
| HMNVEGEVVVPNVIGRTMKDVAVILSDLGLRMEAEGTGVAKSSQPQHGTSVKRGTVVQVRFEPLSVN | -0.201 |
| HMKEINFTIEESAKGRLDKVIAENVADLTRSQVQSLIKKGQILVNDAPTTNRYQVKPNDQVIIKLPDPV | 0.0442 |
| HMPVLDETVPAALDGERIDRVVALLADVSRNRAGIAIAAGSVRLDGAVVTQRSRKVRADEELVVDGLER | -0.00165 |
| HMSKPVFQTHSVRSADSATVFDVLQTLLAGTPDARIAIDPKTNAIVAWARPETQEVIAKSIMEMEG | -0.418 |
| HMTGLSNFEFNQIKLDLMHELTQTPLRLTDLVNRITSFENEKTITVIRFLVDEGILLLKDDTLSVAKID | -1.47 |
| HMQYSIQVNKLLKAMREDVWYTANEILDLLKLKSKETLRKNYLDPAINNKLIILELPDKPTSRNQRYKI | -0.289 |
| HMDAGLAEIIRSFEDNLGGFPPAAREDLLGWREIFTDDLILLAIKKAALAGVRKWSYVNGILKVWKNEGVR | -1.09 |
| HMQPNVTRERILAAAMTVFAQKGWQKTSLDEVAAAAGMTKGAIYWHFRNKNDLFFALLDARLQRD | -1.08 |
| HMEQKELAPLVPQEDGSVKLTNLAGYSMREVAAALEGGNLSLIPIGSGTSWKQDPAPGTVLQPGNTVTVYF | -0.209 |
| HMAGIPIHMSQLKQIILLLSQGYPIKGIARETGVSRNTIKGYLQTLTSQDLNVTDALKLENIQLEYLLRSP | -0.239 |
| HMEILPAYRDIKKEALLGNINAEFKYVNLLLEHNYIEQAFNIIEDMKTRVDDNPEFEELKSRVADAYLMY | -1.48 |
| HMLDFGQEDSEAVSEIILVLGRYWMDFSHKKYPEAEGSALRHKGISHIFTVLKPYLTSATAQLIEQRLQQ | -0.398 |
| HMNVEKLREMYPEGTKIILQEMQGESRMAKGLKGTVTHVDDAGQIHMKWENGSSLVLNVEVDTFKKIE | -0.562 |
| HMGKSDDSLAAEKFIQHVRKNGELSYEQAYRMVHAYFPDFRNFEGMVSGAVKSGYLILIQKSTGLFLRAKE | -0.205 |
| HMEDMMKALLDVVRAQHTATEGSEERPFDINDIIDMALNITGRPEEPEEQQELSDTIQKLAESLAPDIFP | -0.596 |
| HMTNALDMMKTMDSDAYTKYQKISKESSNEDRQLNELKYITNWYAGAVKKNPSMVDDYEKQKEADS | 0.162 |
| HMSRYAFEGNVVRLNQKDFDSWKALFTNIDLVSELTRLDIEFTHDKPKNWFSTASAKLNYQNKNAY | -0.903 |
